This note sets out measurements from paper PMC7899375 (PLoS ONE, 2021).

The target in this assay is WI/05 HA1 monomer (Influenza A virus …, UniProt Q0PED2, strain). The assay can be described thus: ELISA. As to conditions: both partners purified. Background: In an ELISA, binding on a coated surface is turned into a signal by an enzyme label.

B1: mAb #1664 (antibody, V domains shown)
VH: EVQVMQSGAEARMTGATVKISCKASGYTFSDYFLHWVKQAPGKGLEWMGLVDVDNGEVRYAEKFQGRVTITADTSTETAYLEMTTVTSGDTAVYYCASTTPRGGNPSVYNYFFVDVWGKGTTVTVSS
VL: QPVLTQSSSASASLGSSVKLTCTLSSGHDNYIIAWHQQQPGKAPRYLMQVGAGGTYNKGSGVPHRFSGSSSGADRYLTISNLQSDDEADYYCETWDSKTVFGGGTTLTVL
notes: also called private mAb; H3-specific mAb; source: HEK 293F cells, transfected (GenScript), conditioned media; purified
Consider B1, for which the binding result is reported as “no binding (tested: 20 μg/mL)”.
